Source: article PMC10954620

Molecular target: OmcS nanowires (cytochrome OmcS filaments of Geobacter sulfurreducens) (G. sulfurreducens (endogenous in strain ΔomcZ)) (UniProt Q74A86)
Assay: NMR titration; 1D 1H NMR chemical shift perturbation of the heme methyl signals of oxidized PpcA-E with and without OmcS nanowires, single point at 1:4 heme ratio periplasmic cytochrome:OmcS; 50 mM potassium phosphate with KCl (ionic strength 150 mM), pH 7, 2H2O; 298 K, 600 MHz

Chain of UniProt Q74A86 (Q74A86 26-432, stated change not applied): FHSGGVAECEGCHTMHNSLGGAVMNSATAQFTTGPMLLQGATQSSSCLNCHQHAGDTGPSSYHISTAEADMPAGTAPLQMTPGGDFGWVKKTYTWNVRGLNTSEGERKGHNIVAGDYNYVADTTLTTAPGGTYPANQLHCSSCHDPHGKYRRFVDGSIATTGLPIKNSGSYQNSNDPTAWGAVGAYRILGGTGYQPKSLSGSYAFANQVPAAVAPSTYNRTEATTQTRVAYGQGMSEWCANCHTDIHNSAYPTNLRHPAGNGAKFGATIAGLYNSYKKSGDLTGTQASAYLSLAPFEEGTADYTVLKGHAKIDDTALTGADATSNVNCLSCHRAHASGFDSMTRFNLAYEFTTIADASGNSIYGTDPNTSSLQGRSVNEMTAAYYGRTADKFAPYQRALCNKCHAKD

| chemical shift change of heme methyls (Δδ) [ppm] | Substance |
| --- | --- |
| < 0.04 | Periplasmic triheme cytochrome PpcA (natural protein) |
| < 0.04 | Periplasmic triheme cytochrome PpcB (natural protein) |
| < 0.04 | Periplasmic triheme cytochrome PpcD (natural protein) |
| < 0.04 | Periplasmic triheme cytochrome PpcE (natural protein) |
